Consider 4 substances from PMC11577023.

Common to all, as to experiment: […] (pH 7.4), 0.5 mL/min; […]
Experiment [1] deals with rTET-NA derived from A/Michigan/45/2015 N1 (not stated | influenza A virus A/Michigan/45/2015 (H1N1)).
Experiment [2] concerns the target rTET-NA derived from A/Singapore/INFIMH-16-0019/2016 N2 (not stated | influenza A virus A/Singapore/INFIMH-16-0019/2016 (H3N2)).
Experiment [3] addresses rTET-NA derived from B/Colorado/06/2017 (B/Victoria/2/87-like lineage) (not stated | influenza B virus B/Colorado/06/2017 (B/Victoria/2/87-like lineage)).
The target of experiment [4] is rTET-NA derived from B/Phuket/3073/2013 (B/Yamagata/16/88-like lineage) (not stated | influenza B virus B/Phuket/3073/2013 (B/Yamagata/16/88-like lineage)).

For “rTET-NA derived from A/Michigan/45/2015 N1 (enzyme)”, the stoichiometry N in experiment [1] turned out to be 4.
Take “rTET-NA derived from A/Singapore/INFIMH-16-0019/2016 N2 (enzyme)”: in experiment [2], the stoichiometry N was 4.
Take “rTET-NA derived from B/Colorado/06/2017 (B/Victoria/2/87-like lineage) (enzyme)”: in experiment [3], the stoichiometry N amounted to 4.
In experiment [4], “rTET-NA derived from B/Phuket/3073/2013 (B/Yamagata/16/88-like lineage) (enzyme)” displayed a stoichiometry N of 4.
